In patent US10428140B2, “Anti-EphA4 antibody” (EISAI R&D MANAGEMENT CO., LTD., priority 2015, dated 2019):

T1: human EphA3 (Homo sapiens, UniProt P29320)
T1 construct: a protein of the extracellular region of each human Eph receptor fused with the SEAP protein and the His tag; made in house; host or cells: Expi293F cells (culture supernatant)
T1 sequence (P29320 21-541 limits assumed): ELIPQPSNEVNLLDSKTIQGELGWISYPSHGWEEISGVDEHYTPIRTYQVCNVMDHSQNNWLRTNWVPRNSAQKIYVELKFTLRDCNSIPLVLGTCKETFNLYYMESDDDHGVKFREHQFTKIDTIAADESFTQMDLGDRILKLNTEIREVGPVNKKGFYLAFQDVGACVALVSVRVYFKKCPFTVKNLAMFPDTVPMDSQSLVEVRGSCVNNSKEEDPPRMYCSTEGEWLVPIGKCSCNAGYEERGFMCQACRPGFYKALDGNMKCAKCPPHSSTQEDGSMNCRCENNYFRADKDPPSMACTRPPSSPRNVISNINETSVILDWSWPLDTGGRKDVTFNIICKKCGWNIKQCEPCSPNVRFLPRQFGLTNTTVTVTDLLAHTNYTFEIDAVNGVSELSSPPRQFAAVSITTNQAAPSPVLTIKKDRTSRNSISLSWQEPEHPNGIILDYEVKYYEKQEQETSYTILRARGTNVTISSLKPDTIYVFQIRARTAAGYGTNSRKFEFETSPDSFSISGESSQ

T2: human EphB4 (Homo sapiens, UniProt P54760)
T2 construct: a protein of the extracellular region of each human Eph receptor fused with the SEAP protein and the His tag; made in house; host or cells: Expi293F cells
T2 sequence (P54760 16-539 limits assumed): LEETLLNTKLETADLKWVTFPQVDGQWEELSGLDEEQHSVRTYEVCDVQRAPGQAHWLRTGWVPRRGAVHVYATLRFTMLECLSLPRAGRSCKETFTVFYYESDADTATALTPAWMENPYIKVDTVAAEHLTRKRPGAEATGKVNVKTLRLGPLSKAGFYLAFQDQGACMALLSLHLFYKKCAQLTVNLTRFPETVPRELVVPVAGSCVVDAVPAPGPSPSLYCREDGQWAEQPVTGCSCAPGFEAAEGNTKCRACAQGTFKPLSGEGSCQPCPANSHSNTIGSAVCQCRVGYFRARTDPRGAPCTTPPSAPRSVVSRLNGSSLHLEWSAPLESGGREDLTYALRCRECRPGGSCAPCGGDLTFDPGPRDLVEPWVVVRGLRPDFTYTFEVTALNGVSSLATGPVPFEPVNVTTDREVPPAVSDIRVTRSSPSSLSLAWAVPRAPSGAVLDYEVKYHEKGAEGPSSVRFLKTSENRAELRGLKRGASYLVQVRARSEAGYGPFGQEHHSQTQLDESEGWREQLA

T3: human EphB6 (Homo sapiens, UniProt O15197)
T3 construct: a protein of the extracellular region of each human Eph receptor fused with the SEAP protein and the His tag; made in house; host or cells: Expi293F cells
T3 sequence (O15197 32-594 limits assumed): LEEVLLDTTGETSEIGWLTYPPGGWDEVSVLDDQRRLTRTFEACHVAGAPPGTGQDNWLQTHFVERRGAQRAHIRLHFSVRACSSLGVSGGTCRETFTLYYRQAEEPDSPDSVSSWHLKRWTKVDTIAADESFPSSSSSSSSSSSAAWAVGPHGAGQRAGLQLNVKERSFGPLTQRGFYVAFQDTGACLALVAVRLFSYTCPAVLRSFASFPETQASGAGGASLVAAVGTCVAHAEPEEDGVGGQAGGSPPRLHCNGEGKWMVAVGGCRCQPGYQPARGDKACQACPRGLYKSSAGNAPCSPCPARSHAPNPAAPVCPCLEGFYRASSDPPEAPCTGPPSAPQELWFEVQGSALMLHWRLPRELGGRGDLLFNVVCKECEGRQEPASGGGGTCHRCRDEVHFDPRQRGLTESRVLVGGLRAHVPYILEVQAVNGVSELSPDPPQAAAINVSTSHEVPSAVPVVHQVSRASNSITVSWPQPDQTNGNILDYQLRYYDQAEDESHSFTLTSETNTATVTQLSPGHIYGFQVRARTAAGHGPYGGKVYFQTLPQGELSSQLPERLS

B1: 75 (antibody)
VH: QVQLVQSGSELKKPGASVKVSCKASGYTFTDYSMHWVRQAPGQGLEWMGWINTETGEPTYAQGFTGRFVFSLDTSVSTAYLQISSLKAEDTAVYYCARIPLYYYGSRYWYFDVWGQGTTVTVSS
VL: DIQMTQSPSSLSASVGDRVTITCRASENIYRNLAWYQQKPGKAPKLLVYAATNLADGVPSRFSGSGSGTDYTLTISSLQPEDFATYYCQHFWGTPWTFGQGTKVEIK
chain: ASTKGPSVFPLAPSSKSTSGGTAALGCLVKDYFPEPVTVSWNSGALTSGVHTFPAVLQSSGLYSLSSVVTVPSSSLGTQTYICNVNHKPSNTKVDKRVEPKSCDKTHTCPPCPAPPAAAPSVFLFPPKPKDTLMISRTPEVTCVVVDVSHEDPEVQFNWYVDGVEVHNAKTKPREEQFNSTFRVVSVLTVVHQDWLNGKEYKCKVSNKGLPAPIEKTISKTKGQPREPQVYTLPPSREEMTKNQVSLTCLVKGFYPSDIAVEWESNGQPENNYKTTPPMLDSDGSFFLYSKLTVDKSRWQQGNVFSCSVMHEALHNHYTQKSLSLSPG
modifications: synthetic humanized antibody heavy chain variable region sequence; synthetic humanized antibody light chain variable region sequence; synthetic antibody constant region sequence
B2: 76 (antibody, V domains shown)
VH: QVQLVQSGSELKKPGASVKVSCKASGYTFTDYSMHWVRQAPGQGLKWMGWINTETGEPTYAQGFTGRFVFSLDTSVSTAYLQISSLKAEDTAVYYCARIPLYYYGSRYWYFDVWGQGTTVTVSS
VL: DIQMTQSPSSLSASVGDRVTITCRASENIYRNLAWYQQKPGKAPKLLVYAATNLADGVPSRFSGSGSGTDYTLTISSLQPEDFATYYCQHFWGTPWTFGQGTKVEIK
modifications: synthetic humanized antibody heavy chain variable region sequence; synthetic humanized antibody light chain variable region sequence
B3: 67 (antibody, V domains shown)
VH: QIQLVQSGSELKKPGASVKVSCKASGYTFTDYSMHWVRQAPGQGLKWMGWINTETGEPTYAQGFTGRFVFSLDTSVSTAYLQISSLKAEDTAVYYCARIPLYYYGSRYWYFDVWGQGTTVTVSS
VL: DIQMTQSPSSLSASVGDRVTITCRASENIYRNLAWYQQKPGKAPKLLVYAATNLADGVPSRFSGSGSGTDYTLTISSLQPEDFATYYCQHFWGTPWTFGQGTKVEIK
modifications: synthetic humanized antibody heavy chain variable region sequence; synthetic humanized antibody light chain variable region sequence
B4: 77 (antibody, V domains shown)
VH: QVQLVQSGSELKKPGASVKVSCKASGYTFTDYSMHWVRQAPGQGLEWMGWINTETGEPTYADDFKGRFVFSLDTSVSTAYLQISSLKAEDTAVYYCARIPLYYYGSRYWYFDVWGQGTTVTVSS
VL: DIQMTQSPSSLSASVGDRVTITCRASENIYRNLAWYQQKPGKAPKLLVYAATNLADGVPSRFSGSGSGTDYTLTISSLQPEDFATYYCQHFWGTPWTFGQGTKVEIK
modifications: synthetic humanized antibody heavy chain variable region sequence; synthetic humanized antibody light chain variable region sequence
B5: 78 (antibody, V domains shown)
VH: QVQLVQSGSELKKPGASVKVSCKASGYTFTDYSMHWVRQAPGQGLKWMGWINTETGEPTYADDFKGRFVFSLDTSVSTAYLQISSLKAEDTAVYYCARIPLYYYGSRYWYFDVWGQGTTVTVSS
VL: DIQMTQSPSSLSASVGDRVTITCRASENIYRNLAWYQQKPGKAPKLLVYAATNLADGVPSRFSGSGSGTDYTLTISSLQPEDFATYYCQHFWGTPWTFGQGTKVEIK
modifications: synthetic humanized antibody heavy chain variable region sequence; synthetic humanized antibody light chain variable region sequence
B6: 156 (antibody, V domains shown)
VH: QIQLVQSGSELKKPGASVKVSCKASGYTFTDYSMHWVRQAPGQGLKWMGWINTETGEPTYAQGFTGRFVFSLDTSVSTAYLQISSLKAEDTAVYYCARIPLYYYGSRYWYFDVWGQGTTVTVSS
VL: DIQMTQSPSSLSASVGDRVTITCRASENIYRNLAWYQQKPGKAPQLLLYAATNLADGVPSRFSGSGSGTDYTLTISSLQPEDFATYYCQHFWGTPWTFGQGTKVEIK
modifications: synthetic humanized antibody heavy chain variable region sequence; synthetic humanized antibody light chain variable region sequence
B7: 136 (antibody, V domains shown)
VH: QVQLVQSGSELKKPGASVKVSCKASGYTFTDYSMHWVRQAPGQGLKWMGWINTETGEPTYADDFKGRFVFSLDTSVSTAYLQISSLKAEDTAVYYCARIPLYYYGSRYWYFDVWGQGTTVTVSS
VL: EIVMTQSPATLSVSPGERATLSCRASENIYRNLAWYQQKPGQSPRLLIYAATNLADGIPARFSGSGSGTEYTLTISSLQSEDFAVYYCQHFWGTPWTFGQGTKVEIK
modifications: synthetic humanized antibody heavy chain variable region sequence; synthetic humanized antibody light chain variable region sequence

Columns and labels:
Test in all cases: Selectivity ELISA of humanized antibodies for human Eph receptor
Assay type in all cases: binding
Details in all cases: coated protein 1 nM
human EphA3 = biological target: T1, human EphA3
In short: (§1)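 Capture ELISA: anti-6-His coat, 1% BlockAce block, Eph ECD-SEAP-His (1 nM final, Expi293F supernatant) 1 h RT, humanized Ab 1 h RT, HRP anti-IgG 1 h RT, TMB, H2SO4 stop, A450.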

human EphB4 = biological target: T2, human EphB4
In short: as §1

human EphB6 = biological target: T3, human EphB6
In short: as §1

Row | Molecule | hEphA3-SEAP-: absorbance at 450 nm, percentage with respect to hEphA4-SEAP-His as 100% (human EphA3) | hEphB4-SEAP-: absorbance at 450 nm, percentage with respect to hEphA4-SEAP-His as 100% (human EphB4) | hEphB6-SEAP-: absorbance at 450 nm, percentage with respect to hEphA4-SEAP-His as 100% (human EphB6)
1 | B1 | 4.8% | 4.6% | 4.7%
2 | B2 | 4.9% | 5.2% | 5.2%
3 | B3 | 4.8% | 4.9% | 4.7%
4 | B4 | 4.5% | 4.5% | 4.5%
5 | B5 | 5.1% | 5.1% | 5.2%
6 | B6 | 5.7% | 5.6% | 5.7%
7 | B7 | 5.2% | 5.2% | 5.5%
